Results: the supplement of paper PMC9732359
± gives the uncertainty stated by the source.

Assay: protein stability index of a GFP-peptide fusion (yeast GPS) (PSI 1-4); higher = more stable; sorted into four equal gates, so the index is relative within each strain
Summary of the method: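 Tiled 17-residue yeast protein peptides were fused downstream of GFP in a plasmid that also expresses Cherry, and the pooled library was carried in yeast. Mid-log cultures in leucine-free medium were sorted into four equal gates by GFP/Cherry fluorescence ratio, and plasmids from each gate were PCR-amplified and Illumina-sequenced, with reads assigned to strains by barcodes. The protein stability index for each peptide was each gate's read frequency times its gate number, summed.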

Sequence	protein stability index (doa10∆)	protein stability index (pdr5∆)	protein stability index (san1∆)	protein stability index (ubr1∆)
EPIEESSQNNSELAPIE [IRR1]	2.89 ± 0.2	2.9 ± 0.13	2.73 ± 0.26	2.73 ± 0.095
RVRTDDSVLLNRGNKKR [YML031W/NDC1]	3.29 ± 0.13	3.4 ± 0.16	3.08 ± 0.058	3.3 ± 0.097
KINQERLERRINLTKVT [CSI1]	1.91 ± 0.062	1.96 ± 0.062	1.4 ± 0.095	1.37 ± 0.045
MVKGLLKSFTESTAGSA [ECM29]	3.34 ± 0.26	2.97 ± 0.18	2.81 ± 0.11	3.34 ± 0.096
RRFNSSIGRTAQGKEFG [RPL17A]	3.03 ± 0.078	2.96 ± 0.089	2.95 ± 0.098	2.89 ± 0.07
AQPSVQSSFAGTWSAKE [FAS2]	2.74 ± 0.21	3.13 ± 0.14	3.35 ± 0.076	3.09 ± 0.087
SPSEFVDVAIPCNNRGK [RPS0A]	1.74 ± 0.096	1.97 ± 0.065	1.61 ± 0.093	1.54 ± 0.096
NMVSLRGRNDTLERVHL [GRR1]	2.85 ± 0.086	3.22 ± 0.14	2.39 ± 0.17	2.73 ± 0.096
TPSFSFGAKSDENKAGA [YJL041W/NSP1]	3.51 ± 0.28	3.19 ± 0.16	3.17 ± 0.15	
WNSLMYALQSVKLPRAF [RRP43]	1.31 ± 0.066	1.34 ± 0.083	1.2 ± 0.12	1.29 ± 0.051
LLQLIQSQPQEKFSEKM [ECM29]	2.49 ± 0.098	2.02 ± 0.098	2.46 ± 0.093	2.47 ± 0.071
NRSNDALIKFMEYHISN [FAS2]	2.93 ± 0.074	2.55 ± 0.078	2.96 ± 0.084	2.45 ± 0.057
TSSIFQESFNSVQNLDQ [NUT1]	3.16 ± 0.086	2.64 ± 0.057	2.98 ± 0.048	3.14 ± 0.054
